The record followed here is the supplement of paper PMC10567573.

B1: C2orf65 (parent)
chain: QLDWDELETNQQHFHALCHSLLVS
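Note: lentivirally expressed fusions sorted by FACS into six bins by GFP to DsRed ratio, PSI derived from sequencing read proportions per bin multiplied by bin number.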

This data set covers variants of B1. Put plainly: protein stability index of a GFP-peptide fusion (GPS, HEK-293T) (PSI 1-6); higher = more stable. As to conditions: c terminus: a fixed tail appended.
Turning to QLDWDELETNQQHFHDLCHSLLVS [A16D], the protein stability index came out at 2.58.
As for QLDWDELETNQQHFHMLCHSLLVS [A16M], the figure is 1.95.
Take QLDWDELETNQQHFHLLCHSLLVS [A16L]: the protein stability index turned out to be 1.63.
With QLDWDELETNQQHFHVLCHSLLVS [A16V] the figure was 1.86; with QLDWDELETNQQHFHELCHSLLVS [A16E], 3.07.
On to QLDWDELETNQQHFHPLCHSLLVS [A16P], for which the protein stability index stood at 2.43.
As for QLDWDELETNQQHFHGLCHSLLVS [A16G], the figure is 2.41; as for QLDWDELETNQQHFHWLCHSLLVS [A16W], 1.53.
As for QLDWDELETNQQHFHILCHSLLVS [A16I], the figure is 2.2.
In the case of QLDWDELETNQQHFHFLCHSLLVS [A16F], the protein stability index amounted to 2.44.
As for QLDWDELETNQQHFHSLCHSLLVS [A16S], the figure is 2.33; as for QLDWDELETNQQHFHRLCHSLLVS [A16R], 2.22.
Consider QLDWDELETNQQHFHKLCHSLLVS [A16K], for which the protein stability index was determined as 2.91.
Take QLDWDELETNQQHFHNLCHSLLVS [A16N]: the protein stability index was found to be 1.95.
With QLDWDELETNQQHFHHLCHSLLVS [A16H] the figure was 2.35; with QLDWDELETNQQHFHQLCHSLLVS [A16Q], 2.27.
With QLDWDELETNQQHFHCLCHSLLVS [A16C] the figure was 2.31; with QLDWDELETNQQHFHTLCHSLLVS [A16T], 1.57; with QLDWDELETNQQHFHYLCHSLLVS [A16Y], 3.02.
With QLDWDELETNQQHFHALCHSLLGS [V23G], the protein stability index came out at 3.26.
As for QLDWDELETNQQHFHALCHSLLES [V23E], the figure is 2.68; as for QLDWDELETNQQHFHALCHSLLLS [V23L], 1.92; as for QLDWDELETNQQHFHALCHSLLAS [V23A], 2.68.
As for QLDWDELETNQQHFHALCHSLLHS [V23H], the figure is 2.36.
With QLDWDELETNQQHFHALCHSLLPS [V23P] the figure was 2.95.
Regarding QLDWDELETNQQHFHALCHSLLNS [V23N], the protein stability index worked out at 2.75.
As for QLDWDELETNQQHFHALCHSLLMS [V23M], the figure is 1.99.
Regarding QLDWDELETNQQHFHALCHSLLFS [V23F], the protein stability index is 1.69.
Turning to QLDWDELETNQQHFHALCHSLLDS [V23D], the protein stability index amounted to 3.38.
With QLDWDELETNQQHFHALCHSLLIS [V23I] the figure was 1.96.
For the variant QLDWDELETNQQHFHALCHSLLKS [V23K], the protein stability index was 2.45.
As for QLDWDELETNQQHFHALCHSLLCS [V23C], the figure is 2.09.
Consider QLDWDELETNQQHFHALCHMLLVS [S20M], for which the protein stability index was 2.27.
Take QLDWDELETNQQHFHALCHFLLVS [S20F]: the protein stability index amounted to 1.43.
With QLDWDELETNQQHFHALCHLLLVS [S20L] the figure was 2.19.
With QLDWDELETNQQHFHALCHDLLVS [S20D] the figure was 2.98.
As for QLDWDELETNQQHFHALCHQLLVS [S20Q], the protein stability index amounted to 2.03.
As for QLDWDELETNQQHFHALCHILLVS [S20I], the figure is 2.13; as for QLDWDELETNQQHFHALCHGLLVS [S20G], 2.21.
Consider QLDWDELETNQQHFHALCHELLVS [S20E], for which the protein stability index worked out at 1.93.
As for QLDWDELETNQQHFHALCHTLLVS [S20T], the protein stability index was 1.95.
In the case of QLDWDELETNQQHFHALCHYLLVS [S20Y], the protein stability index came out at 2.05.
As for QLDWDELETNQQHFHALCHKLLVS [S20K], the figure is 2.04.
With QLDWDELETNQQHFHALCHRLLVS [S20R] the figure was 1.91; with QLDWDELETNQQHFHALCHVLLVS [S20V], 2.33; with QLDWDELETNQQHFHALCHPLLVS [S20P], 2.33.
As for QLDWDELETNQQHFHALCHWLLVS [S20W], the figure is 1.9; as for QLDWDELETNQQHFHALCHHLLVS [S20H], 2.57.
QLDWDELETNQQHFHALCHNLLVS [S20N]: the protein stability index came to 2.61.
As for QLDWDELETNQQHFHALCHCLLVS [S20C], the protein stability index was 1.5.
With QLDWDELETNQQHFHALCHALLVS [S20A] the figure was 1.79.
QLDWDELETNQQYFHALCHSLLVS [H13Y]: the protein stability index amounted to 2.5.
In the case of QLDWDELETNQQVFHALCHSLLVS [H13V], the protein stability index is 1.85.
With QLDWDELETNQQSFHALCHSLLVS [H13S] the figure was 1.98; with QLDWDELETNQQWFHALCHSLLVS [H13W], 1.55; with QLDWDELETNQQTFHALCHSLLVS [H13T], 2.51.
With QLDWDELETNQQHHHALCHSLLVS [F14H] the figure was 2.67; with QLDWDELETNQQHDHALCHSLLVS [F14D], 3.95; with QLDWDELETNQQHNHALCHSLLVS [F14N], 3.19.
For the variant QLDWDELETNQQHTHALCHSLLVS [F14T], the protein stability index was 3.32.
On to QLDWDELETNQQHMHALCHSLLVS [F14M], for which the protein stability index stood at 2.72.
As for QLDWDELETNQQHCHALCHSLLVS [F14C], the figure is 2.46.
As for QLDWDELETNQQHYHALCHSLLVS [F14Y], the figure is 2.34; as for QLDWDELETNQQHPHALCHSLLVS [F14P], 2.87; as for QLDWDELETNQQHRHALCHSLLVS [F14R], 2.44.
With QLDWDELETNQQHWHALCHSLLVS [F14W] the figure was 2.18; with QLDWDELETNQQHKHALCHSLLVS [F14K], 3.26.
With QLDWDELETNQQHEHALCHSLLVS [F14E], the protein stability index stood at 3.58.
Regarding QLDWDELETNQQHQHALCHSLLVS [F14Q], the protein stability index came out at 3.42.
QLDWDELETNQQHAHALCHSLLVS [F14A]: the protein stability index came to 3.53.
With QLDWDELETNQQHGHALCHSLLVS [F14G] the figure was 3.51; with QLDWDELETNQQHLHALCHSLLVS [F14L], 2.75.
As for QLDWDELETNQQHSHALCHSLLVS [F14S], the figure is 2.91; as for QLDWDELETNQQHVHALCHSLLVS [F14V], 2.79.
With QLDWDELETNQQHIHALCHSLLVS [F14I], the protein stability index is 2.48.
With QLDWDELETNQQHFHALVHSLLVS [C18V], the protein stability index is 2.21.
Turning to QLDWDELETNQQHFHALIHSLLVS [C18I], the protein stability index came out at 1.66.
With QLDWDELETNQQHFHALRHSLLVS [C18R] the figure was 2.48; with QLDWDELETNQQHFHALWHSLLVS [C18W], 2.14.
Take QLDWDELETNQQHFHALAHSLLVS [C18A]: the protein stability index was found to be 2.11.
In the case of QLDWDELETNQQHFHALHHSLLVS [C18H], the protein stability index was determined as 2.65.
With QLDWDELETNQQHFHALLHSLLVS [C18L], the protein stability index was 1.35.
Consider QLDWDELETNQQHFHALYHSLLVS [C18Y], for which the protein stability index is 2.36.
With QLDWDELETNQQHFHALFHSLLVS [C18F] the figure was 2.27; with QLDWDELETNQQHFHALSHSLLVS [C18S], 2.88.
As for QLDWDELETNQQHFHALNHSLLVS [C18N], the figure is 2.96.
Consider QLDWDELETNQQHFHALKHSLLVS [C18K], for which the protein stability index turned out to be 3.2.
As for QLDWDELETNQQHFHALGHSLLVS [C18G], the protein stability index amounted to 2.2.
With QLDWDELETNQQHFHALEHSLLVS [C18E] the figure was 3.64; with QLDWDELETNQQHFHALQHSLLVS [C18Q], 2.76.
Turning to QLDWDELETNQQHFHALTHSLLVS [C18T], the protein stability index turned out to be 2.25.
In the case of QLDWDELETNQQHFHALDHSLLVS [C18D], the protein stability index amounted to 3.62.
As for QLDWDELETNQQHFHALPHSLLVS [C18P], the figure is 2.99.
In the case of QLDWDELETNQQHFHALMHSLLVS [C18M], the protein stability index amounted to 2.11.
